Laboratory results published in patent US20120045438A1 (Janssen / Centocor, published 2012).

biological target: T1, human IL-13 R130Q variant (R110Q of the mature chain) (human, UniProt P35225 35-146, Biotinylated on amines (NHS-LC-biotin, 4:1) in ELISA, panning and competition assays. The letters are unchanged.); experiment: single-point (10 nM) phage Fab ELISA on biotinylated IL-13 R130Q
T1 construct: R130Q counts from Met 1 of the signal peptide, R110Q on the mature chain; Bought from Peprotech; also called IL-13 R110Q; b-R130Q

Row | Binder | Signal (% of Lc16Hc7) [%]
1 | Fab clone 2C06 (IL-13-62 library) (Fab, V domains shown, Fab on phage pIX; del = residue deleted) VH: QVTLKESGPVLVKPTETLTLTCTVSGFSLSTYGMGVGWIRQPPGKALEWLAHIWWDDVKRYNPALKSRLTISKDTSKSQVVLTMTNMDPVDTATYYCARMGSDYDVWFDYWGQGTLVTVSS VL: EIVLTQSPATLSLSPGERATLSCRASKSISKYLAWYQQKPGQAPRLLIYSGSTQQSGIPARFSGSGSGTDFTLTISSLEPEDFAVYYCQQHDYPYTFGQGTKLEIK | 128
2 | Fab clone 2B07 (IL-13-62 library) (Fab, V domains shown, Fab on phage pIX) VH: QVTLKESGPVLVKPTETLTLTCTVSGFSLSTYGMGVGWIRQPPGKALEWLAHIWWDDVKRYNPALKSRLTISKDTSKSQVVLTMTNMDPVDTATYYCARMGSDYDVWFDYWGQGTLVTVSS VL: EIVLTQSPATLSLSPGERATLSCRASKSISKYLAWYQQKPGQAPRLLIYSGSTLQSGIPARFSGSGSGTDFTLTISSLEPEDFAVYYCQQHDWGPYTFGQGTKLEIK | 144
3 | Fab clone 1C07 (IL-13-62 library) (Fab, V domains shown, Fab on phage pIX) VH: QVTLKESGPVLVKPTETLTLTCTVSGFSLSTYGMGVGWIRQPPGKALEWLAHIWWDDVKRYNPALKSRLTISKDTSKSQVVLTMTNMDPVDTATYYCARMGSDYDVWFDYWGQGTLVTVSS VL: EIVLTQSPATLSLSPGERATLSCRASKSISKYLAWYQQKPGQAPRLLIYSGSTLQSGIPARFSGSGSGTDFTLTISSLEPEDFAVYYCQQHESGPYTFGQGTKLEIK | 136
4 | Fab clone 1C06 (IL-13-62 library) (Fab, V domains shown, Fab on phage pIX) VH: QVTLKESGPVLVKPTETLTLTCTVSGFSLSTYGMGVGWIRQPPGKALEWLAHIWWDDVKRYNPALKSRLTISKDTSKSQVVLTMTNMDPVDTATYYCARMGSDYDVWFDYWGQGTLVTVSS VL: EIVLTQSPATLSLSPGERATLSCRASKSISKYLAWYQQKPGQAPRLLIYSGSTLQSGIPARFSGSGSGTDFTLTISSLEPEDFAVYYCQQHSWGPYTFGQGTKLEIK | 172
5 | Fab clone 1A07 (IL-13-62 library) (Fab, V domains shown, Fab on phage pIX) VH: QVTLKESGPVLVKPTETLTLTCTVSGFSLSTYGMGVGWIRQPPGKALEWLAHIWWDDVKRYNPALKSRLTISKDTSKSQVVLTMTNMDPVDTATYYCARMGSDYDVWFDYWGQGTLVTVSS VL: EIVLTQSPATLSLSPGERATLSCRASKSISKYLAWYQQKPGQAPRLLIYSGSTLQSGIPARFSGSGSGTDFTLTISSLEPEDFAVYYCQQHDNSPYTFGQGTKLEIK | 120
6 | Fab clone 1A05 (IL-13-62 library) (Fab, V domains shown, Fab on phage pIX) VH: QVTLKESGPVLVKPTETLTLTCTVSGFSLSTYGMGVGWIRQPPGKALEWLAHIWWDDVKRYNPALKSRLTISKDTSKSQVVLTMTNMDPVDTATYYCARMGSDYDVWFDYWGQGTLVTVSS VL: EIVLTQSPATLSLSPGERATLSCRASKSISKYLAWYQQKPGQAPRLLIYSGSTLQSGIPARFSGSGSGTDFTLTISSLEPEDFAVYYCQQHDYAPYTFGQGTKLEIK | 136
7 | Fab clone 1B05 (IL-13-62 library) (Fab, V domains shown, Fab on phage pIX) VH: QVTLKESGPVLVKPTETLTLTCTVSGFSLSTYGMGVGWIRQPPGKALEWLAHIWWDDVKRYNPALKSRLTISKDTSKSQVVLTMTNMDPVDTATYYCARMGSDYDVWFDYWGQGTLVTVSS VL: EIVLTQSPATLSLSPGERATLSCRASKSISKYLAWYQQKPGQAPRLLIYSGSTLQSGIPARFSGSGSGTDFTLTISSLEPEDFAVYYCQQHDRDPYTFGQGTKLEIK | 108
8 | Fab clone 1A02 (IL-13-62 library) (Fab, V domains shown, Fab on phage pIX) VH: QVTLKESGPVLVKPTETLTLTCTVSGFSLSTYGMGVGWIRQPPGKALEWLAHIWWDDVKRYNPALKSRLTISKDTSKSQVVLTMTNMDPVDTATYYCARMGSDYDVWFDYWGQGTLVTVSS VL: EIVLTQSPATLSLSPGERATLSCRASKSISKYLAWYQQKPGQAPRLLIYSGSTLQSGIPARFSGSGSGTDFTLTISSLEPEDFAVYYCQQHSWAPYTFGQGTKLEIK | 120
9 | Fab clone 2D04 (IL-13-62 library) (Fab, V domains shown, Fab on phage pIX; del = residue deleted) VH: QVTLKESGPVLVKPTETLTLTCTVSGFSLSTYGMGVGWIRQPPGKALEWLAHIWWDDVKRYNPALKSRLTISKDTSKSQVVLTMTNMDPVDTATYYCARMGSDYDVWFDYWGQGTLVTVSS VL: EIVLTQSPATLSLSPGERATLSCRASKSISKYLAWYQQKPGQAPRLLIYSGSTLQSGIPARFSGSGSGTDFTLTISSLEPEDFAVYYCQQQDSPYTFGQGTKLEIK | 100
10 | Fab clone 1A06 (IL-13-62 library) (Fab, V domains shown, Fab on phage pIX) VH: QVTLKESGPVLVKPTETLTLTCTVSGFSLSTYGMGVGWIRQPPGKALEWLAHIWWDDVKRYNPALKSRLTISKDTSKSQVVLTMTNMDPVDTATYYCARMGSDYDVWFDYWGQGTLVTVSS VL: EIVLTQSPATLSLSPGERATLSCRASKSISKYLAWYQQKPGQAPRLLIYSGSTLQSGIPARFSGSGSGTDFTLTISSLEPEDFAVYYCQQHEWGPYTFGQGTKLEIK | 122
11 | Fab clone without printed name, L-CDR3 Q D G del (IL-13-62 library) (Fab, V domains shown, Fab on phage pIX; del = residue deleted) VH: QVTLKESGPVLVKPTETLTLTCTVSGFSLSTYGMGVGWIRQPPGKALEWLAHIWWDDVKRYNPALKSRLTISKDTSKSQVVLTMTNMDPVDTATYYCARMGSDYDVWFDYWGQGTLVTVSS VL: EIVLTQSPATLSLSPGERATLSCRASKSISKYLAWYQQKPGQAPRLLIYSGSTLQSGIPARFSGSGSGTDFTLTISSLEPEDFAVYYCQQQDGPYTFGQGTKLEIK | 184

biological target: T1, human IL-13 R130Q variant (R110Q of the …); experiment: Ra2 binding inhibition ELISA, mAb in crude HEK293 supernatant, IL-13 binding to IL-13Ra2

Row | Binder | % Ra2 Binding Inhibition [%]
12 | mAb with Lc 5H04 (Lc6 variant) and Hc2 (antibody, V domains shown, human IgG1) VH: QVTLKESGPVLVKPTETLTLTCTVSGFSLSTYGMGVGWIRQPPGKALEWLAHIWWDDVKRYNPALKSRLTISKDTSKSQVVLTMTNMDPVDTATYYCARMGSDYDVWFDYWGQGTLVTVSS VL: EIVLTQSPATLSLSPGERATLSCRASKSISKYLAWYQQKPGQAPRLLIYSGSTLQSGIPARFSGSGSGTDFTLTISSLEPEDFAVYYCQQHDYAPYTFGQGTKLEIK | 66.1
13 | mAb with Lc 3E03 (Lc6 variant) and Hc2 (antibody, V domains shown, human IgG1) VH: QVTLKESGPVLVKPTETLTLTCTVSGFSLSTYGMGVGWIRQPPGKALEWLAHIWWDDVKRYNPALKSRLTISKDTSKSQVVLTMTNMDPVDTATYYCARMGSDYDVWFDYWGQGTLVTVSS VL: EIVLTQSPATLSLSPGERATLSCRASKSISKYLAWYQQKPGQAPRLLIYSGSTLQSGIPARFSGSGSGTDFTLTISSLEPEDFAVYYCQQHNHGPYTFGQGTKLEIK | 70.9
14 | mAb with Lc 5G02 (Lc6 variant) and Hc2 (antibody, V domains shown, human IgG1) VH: QVTLKESGPVLVKPTETLTLTCTVSGFSLSTYGMGVGWIRQPPGKALEWLAHIWWDDVKRYNPALKSRLTISKDTSKSQVVLTMTNMDPVDTATYYCARMGSDYDVWFDYWGQGTLVTVSS VL: EIVLTQSPATLSLSPGERATLSCRASKSISKYLAWYQQKPGQAPRLLIYSGSTLQGGIPARFSGSGSGTDFTLTISSLEPEDFAVYYCQQHLDSPYTFGQGTKLEIK | 66.2
15 | mAb with Lc 3G01 (Lc6 variant) and Hc2 (antibody, V domains shown, human IgG1) VH: QVTLKESGPVLVKPTETLTLTCTVSGFSLSTYGMGVGWIRQPPGKALEWLAHIWWDDVKRYNPALKSRLTISKDTSKSQVVLTMTNMDPVDTATYYCARMGSDYDVWFDYWGQGTLVTVSS VL: EIVLTQSPATLSLSPGERATLSCRASKSISKYLAWYQQKPGQAPRLLIYSGSTLQSGIPARFSGSGSGTDFTLTISSLEPEDFAVYYCQQPLDVPYTFGQGTKLEIK | 68.4
16 | mAb with Lc 5D03 (Lc6 variant) and Hc2 (antibody, V domains shown, human IgG1) VH: QVTLKESGPVLVKPTETLTLTCTVSGFSLSTYGMGVGWIRQPPGKALEWLAHIWWDDVKRYNPALKSRLTISKDTSKSQVVLTMTNMDPVDTATYYCARMGSDYDVWFDYWGQGTLVTVSS VL: EIVLTQSPATLSLSPGERATLSCRASKSISKYLAWYQQKPGQAPRLLIYSGSTLQSGIPARFSGSGSGTDFTLTISSLEPEDFAVYYCQQHSYGPYTFGQGTKLEIK | 72.8
17 | mAb with Lc 3D01 (Lc6 variant) and Hc2 (antibody, V domains shown, human IgG1) VH: QVTLKESGPVLVKPTETLTLTCTVSGFSLSTYGMGVGWIRQPPGKALEWLAHIWWDDVKRYNPALKSRLTISKDTSKSQVVLTMTNMDPVDTATYYCARMGSDYDVWFDYWGQGTLVTVSS VL: EIVLTQSPATLSLSPGERATLSCRASKSISKYLAWYQQKPGQAPRLLIYSGSTLQSGIPARFSGSGSGTDFTLTISSLEPEDFAVYYCQQHVGGPYTFGQGTKLEIK | 58.5
18 | mAb with Lc 5B03 (Lc6 variant) and Hc2 (antibody, V domains shown, human IgG1) VH: QVTLKESGPVLVKPTETLTLTCTVSGFSLSTYGMGVGWIRQPPGKALEWLAHIWWDDVKRYNPALKSRLTISKDTSKSQVVLTMTNMDPVDTATYYCARMGSDYDVWFDYWGQGTLVTVSS VL: EIVLTQSPATLSLSPGERATLSCRASKSISKYLAWYQRKPGQAPRLLIYSGSTLQSGIPARFSGSGSGTDFTLTISSLEPEDFAVYYCQQHNEAPYTFGQGTKLEIK | 63
19 | mAb with Lc 5A02 (Lc6 variant) and Hc2 (antibody, V domains shown, human IgG1) VH: QVTLKESGPVLVKPTETLTLTCTVSGFSLSTYGMGVGWIRQPPGKALEWLAHIWWDDVKRYNPALKSRLTISKDTSKSQVVLTMTNMDPVDTATYYCARMGSDYDVWFDYWGQGTLVTVSS VL: EIVLTQSPATLSLSPGERATLSCRASKSISKYLAWYQQKPGQAPRLLIYSGSTLQSGIPARFSGSGSGTDFTLTISSLEPEDFAVYYCQQQDYGPYTFGQGTKLEIK | 78.4
20 | mAb with Lc 3G02 (Lc6 variant) and Hc2 (antibody, V domains shown, human IgG1) VH: QVTLKESGPVLVKPTETLTLTCTVSGFSLSTYGMGVGWIRQPPGKALEWLAHIWWDDVKRYNPALKSRLTISKDTSKSQVVLTMTNMDPVDTATYYCARMGSDYDVWFDYWGQGTLVTVSS VL: EIVLTQSPATLSLSPGERATLSCRASKSISKYLAWYQQKPGQAPRLLIYSGSTLQSGIPARFSGSGSGTDFTLTISSLEPEDFAVYYCQQHLNGPYTFGQGTKLEIK | 66.9
21 | mAb with Lc 3E05 (Lc6 variant) and Hc2 (antibody, V domains shown, human IgG1) VH: QVTLKESGPVLVKPTETLTLTCTVSGFSLSTYGMGVGWIRQPPGKALEWLAHIWWDDVKRYNPALKSRLTISKDTSKSQVVLTMTNMDPVDTATYYCARMGSDYDVWFDYWGQGTLVTVSS VL: EIVLTQSPATLSLSPGERATLSCRASKSISKYLAWYQQKPGQAPRLLIYSGSTLQSGIPARFSGSGSGTDFTLTISSLEPEDFAVYYCQQPLDTPYTFGQGTKLEIK | 70.8
